Measured values taken from US20260167721A1 (ABLEXIS, published 2026).

Experiments:
[1] = molecular target: T1, recombinant human CD3 epsilon/gamma heterodimer (human, UniProt P07766 23-126; P09693 23-116); assay: BLI (Octet), mAb 5 ug/mL on FAB2G sensor, hCD3 E/G 200-50 nM;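 note: antibodies purified from hybridoma supernatants, measured by Octet binding to recombinant human CD3 protein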
T1 construct: Recombinant heterodimer used as analyte in Octet; also called hCD3 E/G
Method: (§1) Samples were evaluated by flow cytometry analysis against Jurkat and human Pan-T cells (FIG. 1B) as well as by Octet against recombinant human CD3 proteins to evaluate apparent affinities and binding off-rates (Table 6, infra).

[2] = molecular target: T2, recombinant human CD3 epsilon/delta heterodimer (human, UniProt P07766 23-126; P04234 22-105); assay: BLI (Octet), mAb 5 ug/mL on FAB2G sensor, hCD3 E/D 200-50 nM
T2 construct: Recombinant heterodimer used as analyte in Octet; also called hCD3 E/D; human CD3E/D
T2 sequence (P07766 23-126, stated change not applied, chain 1 of 2): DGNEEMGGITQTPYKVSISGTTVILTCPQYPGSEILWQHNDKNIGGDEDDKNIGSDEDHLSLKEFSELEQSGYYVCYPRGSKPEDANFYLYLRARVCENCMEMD
T2 sequence (P04234 22-105, stated change not applied, chain 2 of 2): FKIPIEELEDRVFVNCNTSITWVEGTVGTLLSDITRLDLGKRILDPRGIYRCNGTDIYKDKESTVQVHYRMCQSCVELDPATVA
Method: as §1

T1 sequence (P07766 23-126, chain 1 of 2): as the sequence (P07766 23-126, stated change not applied, chain 1 of 2) above
T1 sequence (P09693 23-116, chain 2 of 2): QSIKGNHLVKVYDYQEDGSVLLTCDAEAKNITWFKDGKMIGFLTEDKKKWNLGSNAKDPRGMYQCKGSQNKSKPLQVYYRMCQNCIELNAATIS

Row | Binder | Kd [1] [nM] | Response [1] | koff [1] [s⁻¹] | kon [1] [M⁻¹ s⁻¹] | Kd [2] [nM] | Response [2] | koff [2] [s⁻¹] | kon [2] [M⁻¹ s⁻¹]
1 | ABL-CD3-66 (antibody, V domains shown, mAb purified from hybridoma; chimeric AlivaMab IgG (human VH, CH1 and upper hinge; mouse middle hinge, CH2, CH3; human light chain)) VH: QVQLQESGPGLVKPSETLSLTCTVSGGSISSYYWSWIRQPAGKGLEWIGRIYASGSTYYNPSLKSRVTMSVDTSKNQFSLKLSSVTAADTAVYYCAREKRSRLYFDYWGQGTLVTVSS VL: NFMLTQPHSVSESPGKTVTISCTRSSGSIASNYVQWYQQRPGSSPTTVIYEDNQRPSGVPDRFSGSIDSSSNSASLTISGLKTEDEGDYYCQSYDRSNRVFGGGTKLTVL | 92.8 | 0.09 | 0.0856 | 923000 | 78.2 | 0.41 | 0.0266 | 341000
2 | ABL-CD3-71 (antibody, V domains shown, mAb purified from hybridoma; chimeric AlivaMab IgG (human VH, CH1 and upper hinge; mouse middle hinge, CH2, CH3; human light chain)) VH: QVQLQESGPGLVKPSETLSLTCTVSGGSINSYYWSWIRQPAGKGLEWIGRIYTSGSTNYNPSLKSRVTMSVDTSKKQFSLKLSSVTAADTAVYYCARERISRLYFDYWGQGILVTVSS VL: NFMLTQPHSVSESPGKTVTISCTRSSGSIASNYVQWYQQRPGSSPTTVIYEDNQRPSGVPDRFSGSIDSSSNSASLTISGLKTEDEADYYCQSYDRSNRVFGGGTKLTVL | 55 | 0.11 | 0.0329 | 598000 | 58.8 | 0.48 | 0.0102 | 173000
3 | ABL-CD3-70 (antibody, V domains shown, mAb purified from hybridoma; chimeric AlivaMab IgG (human VH, CH1 and upper hinge; mouse middle hinge, CH2, CH3; human light chain)) VH: EVQLVESGGGLVKPGGSLRLSCAASGFTFSTYIMNWVRQAPGKGLEWVSSITSSSSYIYYADSVKGRFTISRDNAKNSLYLQMNSLRAEDTAVYYCAREKWELLFFDYWGQGTLVTVSS VL: NFMLTQPHSVSESPGKTVTISCTRSSGSIASNYVQWYQQRPGSSPTTVIYEDNQRPSGVPDRFSGSIDSSSNSASLTISGLKTEDEADYYCQSYDSSNRVFGGGTKLTVL | 4.87 | 0.11 | 0.00339 | 697000 | 47.1 | 0.26 | 0.0101 | 214000
4 | ABL-CD3-67 (antibody, V domains shown, mAb purified from hybridoma; chimeric AlivaMab IgG (human VH, CH1 and upper hinge; mouse middle hinge, CH2, CH3; human light chain)) VH: EVQLVESGGGLVKPGGSLRLSCAASGFTVSSYSMNWVRQAPGKGLEWVSSISRSSSYIYYADSVKGRFTISRDNAKNSLFLQMNSLRAEDTAVYYCARERWELLYFDYWGQGTLVTVSS VL: NFMLTQPHSVSESPGKTVTISCTRSSGSIASNYVQWYRQRPGSSPTTVIYEDNQRPSGVPDRFSGAIDSSSTSASLTISGLKTEDEADYYCQSYDSSNRVFGGGTKLTVL | 109 | 0.26 | 0.0178 | 163000 | 53.3 | 0.58 | 0.00485 | 90800
5 | ABL-CD3-72 (antibody, V domains shown, mAb purified from hybridoma; chimeric AlivaMab IgG (human VH, CH1 and upper hinge; mouse middle hinge, CH2, CH3; human light chain)) VH: EVQLVESGGGLVKPGGSLRLSCAASGFTFSTYIMNWVRQAPGKGLEWVSSISSSRSYIYYADSVKGRFTISRDNAKNSLYLQMNSLRAEDTAVYYCAREDRYRLFFDYWGQGTLVTVSS VL: NFMLTQPHSVSESPGKTVTISCTRSSGSIASNYVQWYQQRPGSSPTTVIYEDNQRPSGVPDRFSGSIDSSSNSASLTISGLKTEDEADYYCQSYDSSNRVFGGGTKLTVL | 442 | 0.09 | 0.211 | 476000 | 109 | 0.17 | 0.07 | 641000
6 | ABL-CD3-78 (antibody, V domains shown, mAb purified from hybridoma; chimeric AlivaMab IgG (human VH, CH1 and upper hinge; mouse middle hinge, CH2, CH3; human light chain)) VH: EVQLVESGGGLVKPGGSLRLSCAASGFTVSNYSMNWVRQAPGKGLEWVSCISRSSSYIYYADSVKGRFTISRDNAKNSLFLQMNSLRAEDTAVYYCARERWELLYFDYWGQGTLVTVSS VL: NFMLTQPHSVSESPGKTVTISCTRSSGSIASNYVQWYQQRPGSSPTTVIYEDNQRPSGVPDRFSGSIDSSSNSASLTISGLKTEDEADYYCQSFDGSNRVFGGGTKLTVL | 21.4 | 0.5 | 0.00157 | 73500 | 6.64 | 0.56 | 0.000568 | 85600
7 | ABL-CD3-84 (antibody, V domains shown, mAb purified from hybridoma; chimeric AlivaMab IgG (human VH, CH1 and upper hinge; mouse middle hinge, CH2, CH3; human light chain)) VH: EVQLVESGGGLVKPGGSLRLSCAASGFTFSNFIMNWVRQAPGKGLEWVSSISGSSNYIYYADSVKGRFTISGDNAKNSLYLQMNSLRAEDTAVYYCAREKWVLLFFDYWGQGTLVTVSS VL: NFMLTQPHSVSESPGKTVTISCTRSSGSIASNYVQWYQQRPGSSPTTMIYEDTQRPSGVPDRFSGSIDSSSNSASLTISGLKTEDEADYYCQSYDSSNRVFGGGTKLTVL | 145 | 0.1 | 0.0614 | 424000 | 143 | 0.22 | 0.0203 | 142000
8 | ABL-CD3-68 (antibody, V domains shown, mAb purified from hybridoma; chimeric AlivaMab IgG (human VH, CH1 and upper hinge; mouse middle hinge, CH2, CH3; human light chain)) VH: EVQLVESGGGLVKPGGSLRLSCAASGFTFSSSIMNWVRQAPGKGLEWVSSISGSSSYIYYADSVKGRFTISRDNAKNSQYLQMKSLRAEDTAVYYCARERWNLLYFDYWGQGTLVTVSS VL: not shown | 6.43 | 0.28 | 0.00157 | 244000 | 4.2 | 0.3 | 0.000973 | 232000
9 | ABL-CD3-69 (antibody, V domains shown, mAb purified from hybridoma; chimeric AlivaMab IgG (human VH, CH1 and upper hinge; mouse middle hinge, CH2, CH3; human light chain)) VH: EVQLVESGGGLVKPGGSLRLSCAASGFTFSTYTMNWVRQAPGKGLEWVSTITSSSRYIYYADSVKGRFTISRDNAKNSLYLQMNSLRAEDTAVYYCARVTFDAFDIWGQGTMVTVSS VL: NFMLTQPHSVSESPGKTVTISCTRSSGSIASNYVQWYQQRPGSSPTTVIYEDNQRPSGVPDRFSGSIDSSSNSASLTISGLKTEDEADYYCQSYDSSNRVFGGGTKLTVL | 3.73 | 0.88 | 0.000321 | 86100 | 8.14 | 0.87 | 0.000851 | 105000
10 | ABL-CD3-73 (antibody, V domains shown, mAb purified from hybridoma; chimeric AlivaMab IgG (human VH, CH1 and upper hinge; mouse middle hinge, CH2, CH3; human light chain)) VH: EVQLVESGGGLVKPGGSLRLSCAASGFTITSYSMNWVRQAPGKGLEWVSTFSRSSTYIYYADSVKGRFTISRDNAKNSLYLQMNSLRAEDTAVYYCAREKWDLLYFDYWGQGTLVTVSS VL: NFMLTQPHSVSESPGKTVTISCTRSSGSIASNYVQWYQQRPGSSPTTVIYEDNRRPSGVPDRFSGSIDSSSNSASLTISGLKTEDEADYYCQSYDNSNRVFGGGTTLTVL | 6.12 | 0.99 | 0.000472 | 77000 | 1.26 | 1.02 | 0.0001 | 79700
11 | ABL-CD3-74 (antibody, V domains shown, mAb purified from hybridoma; chimeric AlivaMab IgG (human VH, CH1 and upper hinge; mouse middle hinge, CH2, CH3; human light chain)) VH: EVQLVESGGGLVKPGGSLRLSCAASGFTFSSYSMKWVRQAPGKGLEWVSSISSSSSYIYYADSVKGRFTISRDNAKNSLYLQMNSLRAEDTAVYYCARDRGELTLWYWGQGTLVTVSS VL: SYELTQPPSVSVSPGQTARITCSGDALPKKYAYWYQQKSGQAPVLVIYEDSKRPSGIPERFSGSSSGTMATLTISGAQVEDEADYYCYSTDSSGNHWVFGGGTKLTVL | 124 | 0.13 | 0.0609 | 492000 | 55.6 | 0.24 | 0.026 | 467000
12 | ABL-CD3-76 (antibody, V domains shown, mAb purified from hybridoma; chimeric AlivaMab IgG (human VH, CH1 and upper hinge; mouse middle hinge, CH2, CH3; human light chain)) VH: EVQLVESGGGLVKPGGSLRLSCAASGFTFSNYYMNWVRQAPGKGLERVSSISSSSNYIYYADSVKGRFTISRDNAKNSLYLQMNSLRAEDTAVYYCARDRRELPLDYWGQGTVVTVSS VL: SYELTQPPSVSVSPGQTARITCSGDALPKKYAYWYQQKSGQAPVLVIYEDSKRPSGIPERFSGSSSGTMATLTISGAQVEDEADYYCYSTDSSGNHWVFGGGTKLTVL | 134 | 0.24 | 0.0461 | 345000 | 48.2 | 0.53 | 0.0125 | 260000
13 | ABL-CD3-82 (antibody, V domains shown, mAb purified from hybridoma; chimeric AlivaMab IgG (human VH, CH1 and upper hinge; mouse middle hinge, CH2, CH3; human light chain)) VH: EVQLVESGGGLVKPGGSLRLSCAASGFTFSSYSMNWVRQAPGKGLEWVSSISSSSSYIYYADSVKGRFTISRDNAKNSLYLQMNSLRAEDTAVYYCARDRRELLLDYWGQGTLVTVSS VL: SYELTQPPSVSVSPGQTARITCSGDALPKKYAYWYQQKSGQAPVLVIYEDSKRPSGIPERFSGSSSGTMATLTISGAQVEDEADYYCYSTDSSGNHSWVFGGGTKLTVL | 3.18 | 0.02 | 0.00197 | 620000 | 10.6 | 0.02 | 0.00192 | 182000
14 | ABL-CD3-75 (antibody, V domains shown, mAb purified from hybridoma; chimeric AlivaMab IgG (human VH, CH1 and upper hinge; mouse middle hinge, CH2, CH3; human light chain)) VH: EVQLVESGGGLVKPGGSLRLSCAASGFTFSTYSLNWVRQAPGKGLEWVSSISVSSRYIYFADSVKGRFTISRDNAKNSLYLQMNSLRAEDTAVYYCARDRRELLLDYWGQGTLVTVSS VL: SYELTQPPSVSVSPGQTARITCSGDALPKKYAYWYQQKSGQAPVLVIYEDSKRPSGIPERFSGSSSGTMATLTISGAQVEDEADYYCYSTDSSGNHNWVFGGGTKLTVL | 159 | 0.19 | 0.0593 | 373000 | 29.6 | 0.56 | 0.00726 | 245000
15 | ABL-CD3-80 (antibody, V domains shown, mAb purified from hybridoma; chimeric AlivaMab IgG (human VH, CH1 and upper hinge; mouse middle hinge, CH2, CH3; human light chain)) VH: EVQLVESGGGLVKPGGSLRLSCAASGFTFSGYSMNWVRQAPGKGLEWVSSISSRSRYIYYADSVQGRFTISRDNSKNSLFLQMNSLRAEDTAVYYCGRDWRELLLDYWGQGTLVTVSS VL: SYELTQPPSVSVSPGQTARITCSGDALPKKYAYWYQQKSGQAPVLVIYEDSKRPSGIPERFSGSSSGTMATLTISGAQVEDEADYYCYSTDSSGNHSWVFGGGTKLTVL | 148 | 0.11 | 0.036 | 243000 | 125 | 0.36 | 0.0108 | 86200
16 | ABL-CD3-77 (antibody, V domains shown, mAb purified from hybridoma; chimeric AlivaMab IgG (human VH, CH1 and upper hinge; mouse middle hinge, CH2, CH3; human light chain)) VH: EVQLVESGGGLVKPGGSLRLSCAASGFTFSSYSMNWVRQAPGKGLEWVSSISSSSSYIYYADSVKGRFTISRDNAKNSLYLQMNSLRAEDTAVYYCARDGELGIGTYFDYWGQGTLVTVSS VL: QSVLTQPPSVSGAPGQRVTISCTGSSSNIGAGYDVHWYQQLPGTAPKLLIYGNSNRPSGVPDRFSGSKSGTSASLAITGLQAEDEADYYCQSYDSSLSGSVFGGGTKLTVL | < 0.001 | -0.01 | < 1e-07 | 50000 | < 0.001 | 0.01 | 0.0135 | –
